# In IntAct's records for PubMed 35512704:
# B1: Speckle-type POZ protein (Homo sapiens), O43791 (parent)
# chain: MSRVPSPPPPAEMSSGPVAESWCYTQIKVVKFSYMWTINNFSFCREEMGEVIKSSTFSSGANDKLKWCLRVNPKGLDEESKDYLSLYLLLVSCPKSEVRAKFKFSILNAKGEETKAMESQRAYRFVQGKDWGFKKFIRRDFLLDEANGLLPDDKLTLFCEVSVVQDSVNISGQNTMNMVKVPECRLADELGGLWENSRFTDCCLCVAGQEFQAHKAILAARSPVFSAMFEHEMEESKKNRVEINDVEPEVFKEMMCFIYTGKAPNLDKMADDLLAAADKYALERLKVMCEDALCSNLSVENAAEILILADLHSADQLKTQAVDFINYHASDVLETSGWKSMVVSHPHLVAEAYRSLASAQCPFLGPPRKRLKQS
# Variants of: B1
# Settings: with gnaq_human GNAQ
row,Variant,effect of a mutation on the interaction
1,MSRVPSPPPPAEMSSGPVAESWCYTQIKVVKFSYMWTINNFSFCREEMGEVIKSSTFSSGANDKLKWCLRVNPKGLDEESKDYLSLCLLLVSCPKSEVRAKFKFSILNAKGEETKAMESQRAYRFVQGKDWGFKKFIRRDFLLDEANGLLPDDKLTLFCEVSVVQDSVNISGQNTMNMVKVPECRLADELGGLWENSRFTDCCLCVAGQEFQAHKAILAARSPVFSAMFEHEMEESKKNRVEINDVEPEVFKEMMCFIYTGKAPNLDKMADDLLAAADKYALERLKVMCEDALCSNLSVENAAEILILADLHSADQLKTQAVDFINYHASDVLETSGWKSMVVSHPHLVAEAYRSLASAQCPFLGPPRKRLKQS [Y87C],with no effect

# Variants of: B1
# Settings: with grm1_human GRM1, Q13255
# Chain of grm1_human GRM1, Q13255 (Q13255 whole entry, looked up): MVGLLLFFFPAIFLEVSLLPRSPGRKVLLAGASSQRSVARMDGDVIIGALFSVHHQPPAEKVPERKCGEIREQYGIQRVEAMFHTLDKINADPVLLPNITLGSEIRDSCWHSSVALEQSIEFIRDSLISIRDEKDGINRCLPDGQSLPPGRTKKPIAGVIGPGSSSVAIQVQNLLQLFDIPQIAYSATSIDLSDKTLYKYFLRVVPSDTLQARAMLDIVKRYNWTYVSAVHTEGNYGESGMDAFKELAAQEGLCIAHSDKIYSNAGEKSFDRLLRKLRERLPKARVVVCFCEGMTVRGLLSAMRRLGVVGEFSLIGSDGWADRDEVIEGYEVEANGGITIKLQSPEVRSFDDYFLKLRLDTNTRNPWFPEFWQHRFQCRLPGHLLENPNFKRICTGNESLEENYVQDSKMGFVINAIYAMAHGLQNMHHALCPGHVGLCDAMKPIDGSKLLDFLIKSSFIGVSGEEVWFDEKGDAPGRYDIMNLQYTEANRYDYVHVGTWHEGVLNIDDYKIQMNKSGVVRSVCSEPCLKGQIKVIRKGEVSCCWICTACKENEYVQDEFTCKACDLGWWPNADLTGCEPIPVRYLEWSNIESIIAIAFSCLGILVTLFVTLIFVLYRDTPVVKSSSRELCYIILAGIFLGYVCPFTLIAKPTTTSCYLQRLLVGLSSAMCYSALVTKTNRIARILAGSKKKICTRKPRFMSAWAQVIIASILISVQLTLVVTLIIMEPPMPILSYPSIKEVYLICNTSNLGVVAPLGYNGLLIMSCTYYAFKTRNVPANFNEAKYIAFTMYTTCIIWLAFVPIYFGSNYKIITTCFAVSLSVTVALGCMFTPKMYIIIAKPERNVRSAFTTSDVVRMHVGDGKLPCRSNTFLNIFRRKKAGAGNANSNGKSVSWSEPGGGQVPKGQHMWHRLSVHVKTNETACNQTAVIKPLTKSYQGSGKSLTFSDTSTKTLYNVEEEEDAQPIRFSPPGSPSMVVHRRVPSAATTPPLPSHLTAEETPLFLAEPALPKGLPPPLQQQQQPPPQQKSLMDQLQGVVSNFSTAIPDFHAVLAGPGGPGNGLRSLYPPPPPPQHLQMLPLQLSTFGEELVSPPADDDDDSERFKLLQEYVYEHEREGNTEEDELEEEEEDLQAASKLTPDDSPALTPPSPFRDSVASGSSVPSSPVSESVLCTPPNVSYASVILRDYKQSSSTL
row,Variant,effect of a mutation on the interaction
1,MSRVPSPPPPAEMSSGPVAESWCYTQIKVVKFSYMWTINNFSFCREEMGEVIKSSTFSSGANDKLKWCLRVNPKGLDEESKDYLSLCLLLVSCPKSEVRAKFKFSILNAKGEETKAMESQRAYRFVQGKDWGFKKFIRRDFLLDEANGLLPDDKLTLFCEVSVVQDSVNISGQNTMNMVKVPECRLADELGGLWENSRFTDCCLCVAGQEFQAHKAILAARSPVFSAMFEHEMEESKKNRVEINDVEPEVFKEMMCFIYTGKAPNLDKMADDLLAAADKYALERLKVMCEDALCSNLSVENAAEILILADLHSADQLKTQAVDFINYHASDVLETSGWKSMVVSHPHLVAEAYRSLASAQCPFLGPPRKRLKQS [Y87C],with no effect

# Variants of: B1
# Settings: with grm3_human GRM3, Q14832
# Chain of grm3_human GRM3, Q14832 (Q14832 whole entry, looked up): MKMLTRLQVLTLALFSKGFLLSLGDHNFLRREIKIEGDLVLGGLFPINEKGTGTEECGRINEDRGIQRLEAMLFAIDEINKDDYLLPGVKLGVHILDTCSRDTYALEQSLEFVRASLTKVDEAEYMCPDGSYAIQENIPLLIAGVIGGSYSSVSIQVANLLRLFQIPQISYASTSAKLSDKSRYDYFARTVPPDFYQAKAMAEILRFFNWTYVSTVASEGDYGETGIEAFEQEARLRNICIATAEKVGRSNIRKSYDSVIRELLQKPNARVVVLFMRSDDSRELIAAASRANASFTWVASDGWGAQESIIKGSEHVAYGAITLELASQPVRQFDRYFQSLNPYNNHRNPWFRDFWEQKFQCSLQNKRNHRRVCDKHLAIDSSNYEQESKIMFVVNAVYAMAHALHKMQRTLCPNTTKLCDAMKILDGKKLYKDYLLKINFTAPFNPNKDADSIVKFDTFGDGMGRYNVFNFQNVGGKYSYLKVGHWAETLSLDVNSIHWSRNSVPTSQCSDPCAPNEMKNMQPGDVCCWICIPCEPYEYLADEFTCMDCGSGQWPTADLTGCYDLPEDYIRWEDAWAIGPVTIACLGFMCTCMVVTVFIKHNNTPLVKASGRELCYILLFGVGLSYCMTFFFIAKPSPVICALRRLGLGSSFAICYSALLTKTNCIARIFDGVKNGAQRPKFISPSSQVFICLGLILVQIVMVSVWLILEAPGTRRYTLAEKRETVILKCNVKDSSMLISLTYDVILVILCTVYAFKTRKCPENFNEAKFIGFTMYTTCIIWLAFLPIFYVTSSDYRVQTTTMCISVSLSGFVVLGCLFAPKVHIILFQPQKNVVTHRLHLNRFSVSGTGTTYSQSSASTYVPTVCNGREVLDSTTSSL
row,Variant,effect of a mutation on the interaction
1,MSRVPSPPPPAEMSSGPVAESWCYTQIKVVKFSYMWTINNFSFCREEMGEVIKSSTFSSGANDKLKWCLRVNPKGLDEESKDYLSLCLLLVSCPKSEVRAKFKFSILNAKGEETKAMESQRAYRFVQGKDWGFKKFIRRDFLLDEANGLLPDDKLTLFCEVSVVQDSVNISGQNTMNMVKVPECRLADELGGLWENSRFTDCCLCVAGQEFQAHKAILAARSPVFSAMFEHEMEESKKNRVEINDVEPEVFKEMMCFIYTGKAPNLDKMADDLLAAADKYALERLKVMCEDALCSNLSVENAAEILILADLHSADQLKTQAVDFINYHASDVLETSGWKSMVVSHPHLVAEAYRSLASAQCPFLGPPRKRLKQS [Y87C],with no effect

# Variants of: B1
# Settings: with gsk3b_human GSK3B
row,Variant,effect of a mutation on the interaction
1,MSRVPSPPPPAEMSSGPVAESWCYTQIKVVKFSYMWTINNFSFCREEMGEVIKSSTFSSGANDKLKWCLRVNPKGLDEESKDYLSLCLLLVSCPKSEVRAKFKFSILNAKGEETKAMESQRAYRFVQGKDWGFKKFIRRDFLLDEANGLLPDDKLTLFCEVSVVQDSVNISGQNTMNMVKVPECRLADELGGLWENSRFTDCCLCVAGQEFQAHKAILAARSPVFSAMFEHEMEESKKNRVEINDVEPEVFKEMMCFIYTGKAPNLDKMADDLLAAADKYALERLKVMCEDALCSNLSVENAAEILILADLHSADQLKTQAVDFINYHASDVLETSGWKSMVVSHPHLVAEAYRSLASAQCPFLGPPRKRLKQS [Y87C],with no effect

# Variants of: B1
# Settings: with gtpb4_human GTPBP4, Q9BZE4
row,Variant,effect of a mutation on the interaction
1,MSRVPSPPPPAEMSSGPVAESWCYTQIKVVKFSYMWTINNFSFCREEMGEVIKSSTFSSGANDKLKWCLRVNPKGLDEESKDYLSLCLLLVSCPKSEVRAKFKFSILNAKGEETKAMESQRAYRFVQGKDWGFKKFIRRDFLLDEANGLLPDDKLTLFCEVSVVQDSVNISGQNTMNMVKVPECRLADELGGLWENSRFTDCCLCVAGQEFQAHKAILAARSPVFSAMFEHEMEESKKNRVEINDVEPEVFKEMMCFIYTGKAPNLDKMADDLLAAADKYALERLKVMCEDALCSNLSVENAAEILILADLHSADQLKTQAVDFINYHASDVLETSGWKSMVVSHPHLVAEAYRSLASAQCPFLGPPRKRLKQS [Y87C],with no effect

# Variants of: B1
# Settings: with h33_human H3-3A
row,Variant,effect of a mutation on the interaction
1,MSRVPSPPPPAEMSSGPVAESWCYTQIKVVKFSYMWTINNFSFCREEMGEVIKSSTFSSGANDKLKWCLRVNPKGLDEESKDYLSLCLLLVSCPKSEVRAKFKFSILNAKGEETKAMESQRAYRFVQGKDWGFKKFIRRDFLLDEANGLLPDDKLTLFCEVSVVQDSVNISGQNTMNMVKVPECRLADELGGLWENSRFTDCCLCVAGQEFQAHKAILAARSPVFSAMFEHEMEESKKNRVEINDVEPEVFKEMMCFIYTGKAPNLDKMADDLLAAADKYALERLKVMCEDALCSNLSVENAAEILILADLHSADQLKTQAVDFINYHASDVLETSGWKSMVVSHPHLVAEAYRSLASAQCPFLGPPRKRLKQS [Y87C],with no effect

# Variants of: B1
# Settings: with hdac1_human HDAC1, Q13547
# Chain of hdac1_human HDAC1, Q13547 (Q13547 whole entry): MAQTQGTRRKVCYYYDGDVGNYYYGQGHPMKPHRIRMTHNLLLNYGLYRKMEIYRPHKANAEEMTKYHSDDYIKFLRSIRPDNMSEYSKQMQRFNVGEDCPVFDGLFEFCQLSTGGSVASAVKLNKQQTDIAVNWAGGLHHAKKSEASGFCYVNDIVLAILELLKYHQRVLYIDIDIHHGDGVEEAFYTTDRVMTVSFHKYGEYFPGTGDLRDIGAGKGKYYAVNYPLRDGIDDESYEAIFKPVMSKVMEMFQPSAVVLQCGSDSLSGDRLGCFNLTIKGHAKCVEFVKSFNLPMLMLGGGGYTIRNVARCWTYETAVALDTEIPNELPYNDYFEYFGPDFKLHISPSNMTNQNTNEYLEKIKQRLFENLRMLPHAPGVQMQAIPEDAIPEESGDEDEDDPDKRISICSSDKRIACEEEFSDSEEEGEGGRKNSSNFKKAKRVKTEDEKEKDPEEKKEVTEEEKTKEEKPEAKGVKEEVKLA
row,Variant,effect of a mutation on the interaction
1,MSRVPSPPPPAEMSSGPVAESWCYTQIKVVKFSYMWTINNFSFCREEMGEVIKSSTFSSGANDKLKWCLRVNPKGLDEESKDYLSLCLLLVSCPKSEVRAKFKFSILNAKGEETKAMESQRAYRFVQGKDWGFKKFIRRDFLLDEANGLLPDDKLTLFCEVSVVQDSVNISGQNTMNMVKVPECRLADELGGLWENSRFTDCCLCVAGQEFQAHKAILAARSPVFSAMFEHEMEESKKNRVEINDVEPEVFKEMMCFIYTGKAPNLDKMADDLLAAADKYALERLKVMCEDALCSNLSVENAAEILILADLHSADQLKTQAVDFINYHASDVLETSGWKSMVVSHPHLVAEAYRSLASAQCPFLGPPRKRLKQS [Y87C],with no effect

# Variants of: B1
# Settings: with hdac3_human HDAC3, O15379
# Chain of hdac3_human HDAC3, O15379 (O15379 whole entry): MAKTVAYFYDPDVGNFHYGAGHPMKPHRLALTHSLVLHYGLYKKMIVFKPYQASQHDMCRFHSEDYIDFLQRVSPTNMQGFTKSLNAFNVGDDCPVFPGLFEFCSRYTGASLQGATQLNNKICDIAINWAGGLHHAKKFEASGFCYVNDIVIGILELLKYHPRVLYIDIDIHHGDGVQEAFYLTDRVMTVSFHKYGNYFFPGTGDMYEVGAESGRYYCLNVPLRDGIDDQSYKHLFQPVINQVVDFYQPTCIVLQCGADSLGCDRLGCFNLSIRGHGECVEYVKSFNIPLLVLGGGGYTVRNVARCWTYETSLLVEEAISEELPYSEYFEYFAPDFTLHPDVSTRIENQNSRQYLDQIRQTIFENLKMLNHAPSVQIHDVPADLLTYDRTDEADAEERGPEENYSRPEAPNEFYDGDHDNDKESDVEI
row,Variant,effect of a mutation on the interaction
1,MSRVPSPPPPAEMSSGPVAESWCYTQIKVVKFSYMWTINNFSFCREEMGEVIKSSTFSSGANDKLKWCLRVNPKGLDEESKDYLSLCLLLVSCPKSEVRAKFKFSILNAKGEETKAMESQRAYRFVQGKDWGFKKFIRRDFLLDEANGLLPDDKLTLFCEVSVVQDSVNISGQNTMNMVKVPECRLADELGGLWENSRFTDCCLCVAGQEFQAHKAILAARSPVFSAMFEHEMEESKKNRVEINDVEPEVFKEMMCFIYTGKAPNLDKMADDLLAAADKYALERLKVMCEDALCSNLSVENAAEILILADLHSADQLKTQAVDFINYHASDVLETSGWKSMVVSHPHLVAEAYRSLASAQCPFLGPPRKRLKQS [Y87C],with no effect

# Variants of: B1
# Settings: with hgf_human HGF
row,Variant,effect of a mutation on the interaction
1,MSRVPSPPPPAEMSSGPVAESWCYTQIKVVKFSYMWTINNFSFCREEMGEVIKSSTFSSGANDKLKWCLRVNPKGLDEESKDYLSLCLLLVSCPKSEVRAKFKFSILNAKGEETKAMESQRAYRFVQGKDWGFKKFIRRDFLLDEANGLLPDDKLTLFCEVSVVQDSVNISGQNTMNMVKVPECRLADELGGLWENSRFTDCCLCVAGQEFQAHKAILAARSPVFSAMFEHEMEESKKNRVEINDVEPEVFKEMMCFIYTGKAPNLDKMADDLLAAADKYALERLKVMCEDALCSNLSVENAAEILILADLHSADQLKTQAVDFINYHASDVLETSGWKSMVVSHPHLVAEAYRSLASAQCPFLGPPRKRLKQS [Y87C],with no effect

# Variants of: B1
# Settings: with h31_human H3C1, P68431
row,Variant,effect of a mutation on the interaction
1,MSRVPSPPPPAEMSSGPVAESWCYTQIKVVKFSYMWTINNFSFCREEMGEVIKSSTFSSGANDKLKWCLRVNPKGLDEESKDYLSLCLLLVSCPKSEVRAKFKFSILNAKGEETKAMESQRAYRFVQGKDWGFKKFIRRDFLLDEANGLLPDDKLTLFCEVSVVQDSVNISGQNTMNMVKVPECRLADELGGLWENSRFTDCCLCVAGQEFQAHKAILAARSPVFSAMFEHEMEESKKNRVEINDVEPEVFKEMMCFIYTGKAPNLDKMADDLLAAADKYALERLKVMCEDALCSNLSVENAAEILILADLHSADQLKTQAVDFINYHASDVLETSGWKSMVVSHPHLVAEAYRSLASAQCPFLGPPRKRLKQS [Y87C],with no effect

# Variants of: B1
# Settings: with hlab_human HLA-B
row,Variant,effect of a mutation on the interaction
1,MSRVPSPPPPAEMSSGPVAESWCYTQIKVVKFSYMWTINNFSFCREEMGEVIKSSTFSSGANDKLKWCLRVNPKGLDEESKDYLSLCLLLVSCPKSEVRAKFKFSILNAKGEETKAMESQRAYRFVQGKDWGFKKFIRRDFLLDEANGLLPDDKLTLFCEVSVVQDSVNISGQNTMNMVKVPECRLADELGGLWENSRFTDCCLCVAGQEFQAHKAILAARSPVFSAMFEHEMEESKKNRVEINDVEPEVFKEMMCFIYTGKAPNLDKMADDLLAAADKYALERLKVMCEDALCSNLSVENAAEILILADLHSADQLKTQAVDFINYHASDVLETSGWKSMVVSHPHLVAEAYRSLASAQCPFLGPPRKRLKQS [Y87C],with no effect

# Variants of: B1
# Settings: with hnf1a_human HNF1A
row,Variant,effect of a mutation on the interaction
1,MSRVPSPPPPAEMSSGPVAESWCYTQIKVVKFSYMWTINNFSFCREEMGEVIKSSTFSSGANDKLKWCLRVNPKGLDEESKDYLSLCLLLVSCPKSEVRAKFKFSILNAKGEETKAMESQRAYRFVQGKDWGFKKFIRRDFLLDEANGLLPDDKLTLFCEVSVVQDSVNISGQNTMNMVKVPECRLADELGGLWENSRFTDCCLCVAGQEFQAHKAILAARSPVFSAMFEHEMEESKKNRVEINDVEPEVFKEMMCFIYTGKAPNLDKMADDLLAAADKYALERLKVMCEDALCSNLSVENAAEILILADLHSADQLKTQAVDFINYHASDVLETSGWKSMVVSHPHLVAEAYRSLASAQCPFLGPPRKRLKQS [Y87C],with no effect

# Variants of: B1
# Settings: with igf1r_human IGF1R
row,Variant,effect of a mutation on the interaction
1,MSRVPSPPPPAEMSSGPVAESWCYTQIKVVKFSYMWTINNFSFCREEMGEVIKSSTFSSGANDKLKWCLRVNPKGLDEESKDYLSLCLLLVSCPKSEVRAKFKFSILNAKGEETKAMESQRAYRFVQGKDWGFKKFIRRDFLLDEANGLLPDDKLTLFCEVSVVQDSVNISGQNTMNMVKVPECRLADELGGLWENSRFTDCCLCVAGQEFQAHKAILAARSPVFSAMFEHEMEESKKNRVEINDVEPEVFKEMMCFIYTGKAPNLDKMADDLLAAADKYALERLKVMCEDALCSNLSVENAAEILILADLHSADQLKTQAVDFINYHASDVLETSGWKSMVVSHPHLVAEAYRSLASAQCPFLGPPRKRLKQS [Y87C],with no effect

# Variants of: B1
# Settings: with il7ra_human IL7R
row,Variant,effect of a mutation on the interaction
1,MSRVPSPPPPAEMSSGPVAESWCYTQIKVVKFSYMWTINNFSFCREEMGEVIKSSTFSSGANDKLKWCLRVNPKGLDEESKDYLSLCLLLVSCPKSEVRAKFKFSILNAKGEETKAMESQRAYRFVQGKDWGFKKFIRRDFLLDEANGLLPDDKLTLFCEVSVVQDSVNISGQNTMNMVKVPECRLADELGGLWENSRFTDCCLCVAGQEFQAHKAILAARSPVFSAMFEHEMEESKKNRVEINDVEPEVFKEMMCFIYTGKAPNLDKMADDLLAAADKYALERLKVMCEDALCSNLSVENAAEILILADLHSADQLKTQAVDFINYHASDVLETSGWKSMVVSHPHLVAEAYRSLASAQCPFLGPPRKRLKQS [Y87C],with no effect

# Variants of: B1
# Settings: with int12_human INTS12, Q96CB8
# Chain of int12_human INTS12, Q96CB8 (Q96CB8 whole entry): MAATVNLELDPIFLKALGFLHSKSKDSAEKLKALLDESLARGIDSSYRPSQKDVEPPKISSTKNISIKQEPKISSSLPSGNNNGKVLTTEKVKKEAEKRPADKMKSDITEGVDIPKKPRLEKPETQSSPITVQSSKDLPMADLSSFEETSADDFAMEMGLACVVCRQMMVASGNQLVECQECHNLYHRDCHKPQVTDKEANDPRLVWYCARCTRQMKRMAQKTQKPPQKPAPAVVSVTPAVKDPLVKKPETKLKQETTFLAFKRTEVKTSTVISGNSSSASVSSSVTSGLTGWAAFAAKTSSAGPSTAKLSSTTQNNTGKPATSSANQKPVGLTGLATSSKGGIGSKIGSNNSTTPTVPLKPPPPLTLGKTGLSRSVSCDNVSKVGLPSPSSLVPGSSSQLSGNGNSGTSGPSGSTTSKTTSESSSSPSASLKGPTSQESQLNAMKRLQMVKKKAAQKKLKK
row,Variant,effect of a mutation on the interaction
1,MSRVPSPPPPAEMSSGPVAESWCYTQIKVVKFSYMWTINNFSFCREEMGEVIKSSTFSSGANDKLKWCLRVNPKGLDEESKDYLSLCLLLVSCPKSEVRAKFKFSILNAKGEETKAMESQRAYRFVQGKDWGFKKFIRRDFLLDEANGLLPDDKLTLFCEVSVVQDSVNISGQNTMNMVKVPECRLADELGGLWENSRFTDCCLCVAGQEFQAHKAILAARSPVFSAMFEHEMEESKKNRVEINDVEPEVFKEMMCFIYTGKAPNLDKMADDLLAAADKYALERLKVMCEDALCSNLSVENAAEILILADLHSADQLKTQAVDFINYHASDVLETSGWKSMVVSHPHLVAEAYRSLASAQCPFLGPPRKRLKQS [Y87C],with no effect
